B1: G4_TGFβRII (wt) (Fc fusion)
chain: IPPHVQKSVNNDMIVTDNNGAVKFPQLCKFCDVRFSTCDNQKSCMSNCSITSICEKPQEVCVAVWRKNDENITLETVCHDPKLPYHDFILEDAASPKCIMKEKKKPGETFFMCSCSSDECNDNIIFSEEYNTSNPD
notes: TGFβRII extracellular domain linked to an IgG4 Fc region; Fc is placed first here only because of the name G4_TGFβRII; also called wild-type G4_TGFβRII protein; not shown: Fc region of IgG4 (and any linker)
B2: human TGFβ3 (ligand, UniProt P10600 301-412, looked up)
chain: ALDTNYCFRNLEENCCVRPLYIDFRQDLGWKWVHEPKGYYANFCSGPCPYLRSADTTHSTVLGLYNTLNPEASASPCCVPQDLEPLTILYYVGRTPKVEQLSNMVVKSCKCS

Legend:
[1] = target: T1, human TGFβ1 (human, UniProt P01137 279-390); assay: cell-based or functional assay
T1 sequence (P01137 279-390 limits assumed): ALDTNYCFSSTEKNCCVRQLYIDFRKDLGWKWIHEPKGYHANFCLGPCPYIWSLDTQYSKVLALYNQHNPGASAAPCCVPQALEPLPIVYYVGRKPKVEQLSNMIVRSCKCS

[2] = target: B2; assay: cell-based or functional assay
[3] = target: T1, human TGFβ1; assay: ELISA (on rate), plate coated with 0.5 ug/ml human TGFβ1, 5 min incubation, OD450
Protocol: (§1) For on-rate binding ability, a 96-well EIA microplate was coated with 0.5 μg/ml human TGFβ (TGFβ1) overnight at 4° C. […] The unbound proteins were removed by washing the wells with 1×PBST (1×PBS containing 0.1% Tween 20) three times. A HRP-conjugated secondary antibody (1:5000) was added to the wells at RT for 1 hour. After the incubation, excess secondary antibodies were removed by washing the wells with 1×PBST three times. Finally, 3,3′,5,5′-Tetramethylbenzidine (TMB) was added for color development. The reaction was stopped and HRP activity was measured using a spectrophotometer at 450 nm.

[4] = target: T1, human TGFβ1; assay: ELISA, plate coated with 0.5 ug/ml human TGFβ1, 1 h incubation, HRP secondary antibody, OD450
Protocol: as §1, with “A” for “For on-rate binding ability, a”, “ug/ml” for “μg/ml”, “(TGFβ1, TGFβ2, or TGFβ3)” for “(TGFβ1)”, “0.05%” for “0.1%”, “room temperature (RT)” for “RT”

[5] = target: B2; assay: ELISA, plate coated with 0.5 ug/ml human TGFβ3, 1 h incubation, HRP secondary antibody, OD450
Protocol: as §1, with “A” for “For on-rate binding ability, a”, “ug/ml” for “μg/ml”, “(TGFβ1, TGFβ2, or TGFβ3)” for “(TGFβ1)”, “0.05%” for “0.1%”, “room temperature (RT)” for “RT”

[6] = target: T1, human TGFβ1; assay: ELISA (off rate), plate coated with 0.5 ug/ml human TGFβ1, 1 h incubation, then 2 h wash on a shaker, OD450
Protocol: A HRP-conjugated secondary antibody (1:5000) was added to the wells at RT for 1 hour. After the incubation, excess secondary antibodies were removed by washing the wells with 1×PBST three times. Finally, 3,3′,5,5′-Tetramethylbenzidine (TMB) was added for color development. The reaction was stopped and HRP activity was measured using a spectrophotometer at 450 nm.

[7] = target: B1; assay: ELISA, plate coated with 0.5 ug/ml human TGFβ3, 1 h incubation, HRP secondary antibody, OD450
Protocol: as §1, with “A” for “For on-rate binding ability, a”, “ug/ml” for “μg/ml”, “(TGFβ1, TGFβ2, or TGFβ3)” for “(TGFβ1)”, “0.05%” for “0.1%”, “room temperature (RT)” for “RT”

Binder: B1
- IC50 (read off the curve) [1]: ~1 nM
- IC50 (read off the curve) [2]: ~3 nM
- EC50 [3]: 10.8 nM
- EC50 (read off the curve) [4]: ~6 nM
- EC50 (read off the curve) [5]: ~2 nM
- EC50 (read off the curve) [6]: ~4 nM

Binder: B2
- binding result [7]: binds

From patent publication US20240228584A1 (FBD BIOLOGICS, published 2024)
